The target in this data set is T1, phiC31 integrase (Streptomyces phage phiC31) (UniProt Q9T221).
T1 sequence: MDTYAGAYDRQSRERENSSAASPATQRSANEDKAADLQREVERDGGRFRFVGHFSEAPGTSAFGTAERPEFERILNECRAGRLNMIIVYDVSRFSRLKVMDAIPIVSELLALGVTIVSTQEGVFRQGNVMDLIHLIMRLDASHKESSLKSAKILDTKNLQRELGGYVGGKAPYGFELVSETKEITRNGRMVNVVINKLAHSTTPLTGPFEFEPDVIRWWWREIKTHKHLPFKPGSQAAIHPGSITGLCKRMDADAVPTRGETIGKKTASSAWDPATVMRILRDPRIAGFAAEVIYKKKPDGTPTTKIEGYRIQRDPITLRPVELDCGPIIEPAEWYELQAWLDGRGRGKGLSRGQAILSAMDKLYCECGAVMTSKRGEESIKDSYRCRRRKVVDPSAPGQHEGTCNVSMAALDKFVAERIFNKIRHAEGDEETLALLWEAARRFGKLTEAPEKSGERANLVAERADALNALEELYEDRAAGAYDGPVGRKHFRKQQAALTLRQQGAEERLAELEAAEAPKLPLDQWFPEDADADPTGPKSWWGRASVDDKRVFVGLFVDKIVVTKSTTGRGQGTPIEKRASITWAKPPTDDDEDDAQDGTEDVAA
Put plainly: cell_activity.

The substance attB34 came in with a binding signal (E. coli, relative to full-length attB) of 100%.

Take attB full length (pBCPB+): the activity was determined as 7.5% (bimolecular integration of attP donor into EBV plasmid in human 293 cells, corrected for transfection) and 100% (intramolecular integration with attP in E. coli, all colonies white).

On to attP full length (221 bp), for which the activity is, setting by setting: (intramolecular attB x attP recombination in human 293 cells, SE 2.32%, 16 experiments) 50.6%; (intramolecular integration with attB in E. coli, all colonies white) 100%.

The values above are taken from patent US6632672.
